Laboratory results as given in US20250215403A1, “Compositions and Methods for Cardiac Tissue Regeneration” (Temple University - Of The Commonwealth System Of Higher …, priority 2022, published 2025).

What was measured:
cardiomyocytes (CM) = experiment: Mouse MI model: TUNEL staining of CM apoptosis; format: in vivo; conditions: vs Luc modRNA
Protocol: (§1) All surgical and experimental procedures with mice were performed in accordance with protocols approved by Institutional Animal Care and Use Committees at Temple University Animal Care and Use Committee (IACUC). C57BL6 or CM-specific MADM mice (8-12-weeks-old) were anesthetized with isoflurane. MI was induced by permanent ligation of the LAD, as previously described (Garikipati, V. N. S., et al., 2019, Nature Communications, 10:4317). Briefly, the left thoracic region was shaved and sterilized. After intubation, the heart was exposed through a left thoracotomy. A suture was placed to ligate the LAD. The thoracotomy and skin were sutured closed in layers. Excess air was removed from the thoracic cavity, and the mouse was removed from ventilation when normal breathing was established. In order to determine the effect of modRNA on cardiovascular outcome after MI, modRNAs (100 μg/heart) were injected into the infarct zone immediately after LAD ligation (Magadum A., et al., Circulation. 2020, 141 (15): 1249-1265). For examination of heart histology, hearts were collected at the end of each study, quickly washed in PBS, weighed, and fixed in 4% PFA for cryo-sectioning and immunostainings. In all experiments, the surgeon was blinded to the treatment group. For assessment of heart histology, hearts were collected at the end of each study. The hearts were excised, briefly washed in PBS, perfused with perfusion buffer, weighed and fixed in 4% PFA at 4° C. overnight. The heart blocks were transverse sectioned at 6-8 μm using cryostat. The heart sections were further processed for histological evaluation using immunostaining (see below) or histological scar staining using Masson's trichrome staining kit (Sigma) according to standard procedures. Measuring the ratio of heart weight to body weight was done using a scale. This ratio was calculated as the heart tissue weight relative to the mouse total body weight in grams (g).
(§2) Mice hearts were harvested, weighed, and fixed in 4% PFA/PBS overnight on shaker and then washed with PBS for 1 hour and incubated in 30% sucrose/PBS at 4° C. for 12-18 hours. Hearts were then fixed in OCT and frozen at −80° C. (Magadum A., et al., Circulation. 2020, 141 (15): 1249-1265). Transverse heart sections (6-8 μm) were made using a cryostat. […] For immunostaining with wheat germ agglutinin (WGA) for CM size quantification, images were captured at 40× magnification, and ImageJ was used to determine the area of each cell. Quantitative analyses involved counting of multiple fields from 5-8 mouse hearts per group, and 3-4 sections/heart (˜50 cells per field assessed, for a total ˜250 cells per sample). […] BrdU positive CMs were counted in multiple fields from three independent samples per group and 3 sections/heart. […]

[1] = Mouse MI model: heart histology 28 days post-MI (Masson trichrome scar size, HW/BW, WGA CM size, CD31 capillaries); format: in vivo
Protocol: as §1, §2

B1: PSAT1 modRNA: modified mRNA with N1-methylpseudouridine, transcribed in vitro, encoding phosphoserine aminotransferase 1 (ORF SEQ ID NO: 1, RNA SEQ ID NO: 2) (nucleic acid)
chain: AUGGAAGCCACCAAGCAAGUGGUUAACUUUGGGCCCGGGCCUGCCAAGCUGCCACACUCGGUAUUGUUGGAGAUCCAGAAGCAGCUACUAGACUACAGAGGACUCGGCAUCAGUGUGCUCGAAAUGAGUCACAGGUCAUCAGAUUUUGCCAAGAUUAUUGGCAAUACAGAGAAUCUUGUGAGGGAAUUGCUAGCUGUUCCCAACAACUACAAGGUGAUCUUUGUACAAGGAGGUGGGUCUGGCCAGUUCAGUGCUGUCCCCUUAAAUCUGAUUGGCCUGAAAGCUGGAAGGAGUGCUGACUACGUGGUGACCGGAGCUUGGUCAGCUAAGGCUGCGGAAGAAGCCAAGAAGUUUGGAACGGUGAACAUUGUCCACCCUAAACUUGGAAGUUACACAAAAAUUCCAGACCCAAGCACCUGGAACCUCAACCCGGACGCCUCCUAUGUAUACUUCUGUGCAAACGAGACUGUGCACGGGGUGGAGUUUGACUUCGUACCUGACGUCAAGGGAGCGGUGCUGGUCUGUGACAUGUCCUCAAACUUCUUAUCCAGGCCGGUGGAUGUUUCCAAGUUUGGUGUGAUUUUCGCUGGUGCUCAGAAGAAUGUUGGCUCUGCCGGGGUGACGGUGGUGAUUGUCCGGGAUGACCUGCUGGGGUUCUCGCUCAGAGAGUGCCCAUCAGUCCUUGACUACAAAGUGCAGGCUGGGAACAACUCUUUGUAUAACACACCUCCGUGCUUCAGCAUCUACGUCAUGGGCAUGGUCCUGGAAUGGAUCAAGAACAACGGCGGGGCCGCAGCCAUGGAGAAGCUCAGCUCCAUCAAAUCCCAAAUGAUUUAUGAGAUCAUUGAUAAUUCUCAAGGAUUUUAUGUAUGCCCAGUGGAGCGCCAGAAUAGAAGCAGGAUGAACAUCCCAUUUCGCAUUGGCAACGCCAAAGGAGACGAAGCUUUGGAAAAGCGGUUUCUUGACAAGGCGGUAGAACUCAACAUGAUCUCCUUGAAGGGGCACAGGUCAGUGGGAGGCAUUCGUGCCUCUCUGUAUAACGCUGUCACAACCGAAGACGUUGAGAAGCUGGCGGCCUUCAUGAAGAAUUUCUUGGAGAUGCAUCAGCUGUGA
modifications: N1-methylpseudouridine
Cardiomyocytes (CM); 2 days post-MI
  TUNEL+ CMs: significantly decreased
Cardiomyocytes (CM); 7 days post-MI
  TUNEL+ CMs: significantly decreased
[1]
  CM size (WGA): significantly decreased
  capillary density (CD31): improved
  heart weight to body weight (HW/BW) ratio: significantly increased
[1]; compared to Luc modRNA
  scar size (Masson's trichrome staining): decreased
